According to paper doi:10.1101/764241:
Read-outs that look alike come from different tables or passages of the source.

Assays:
[1] = molecular target: Toxoplasma gondii Gat1 (Toxoplasma gondii); assay: SEC + AUC
[2] = molecular target: Pythium ultimum Gat1 (Pythium ultimum); assay: AUC
[3] = molecular target: Pythium ultimum Gat1 (Pythium ultimum); assay: AUC; remark: listed apart in the source

Row | stoichiometry N [2] | fold higher dimer affinity than Oc-glycogenin-1 (reported Kd 0.85 µM) [3] [fold] | stoichiometry N [3] | Substance | stoichiometry N [1]
1 | – | – | – | Toxoplasma gondii Gat1 (enzyme) | 2
2 | 2 | > 2 | 2 | Pythium ultimum Gat1 (enzyme) | –
